Target: TLR5 (UniProt O60602 21-858)
Experiment: cell-based or functional assay

Sequence of TLR5 (O60602 21-858 limits assumed): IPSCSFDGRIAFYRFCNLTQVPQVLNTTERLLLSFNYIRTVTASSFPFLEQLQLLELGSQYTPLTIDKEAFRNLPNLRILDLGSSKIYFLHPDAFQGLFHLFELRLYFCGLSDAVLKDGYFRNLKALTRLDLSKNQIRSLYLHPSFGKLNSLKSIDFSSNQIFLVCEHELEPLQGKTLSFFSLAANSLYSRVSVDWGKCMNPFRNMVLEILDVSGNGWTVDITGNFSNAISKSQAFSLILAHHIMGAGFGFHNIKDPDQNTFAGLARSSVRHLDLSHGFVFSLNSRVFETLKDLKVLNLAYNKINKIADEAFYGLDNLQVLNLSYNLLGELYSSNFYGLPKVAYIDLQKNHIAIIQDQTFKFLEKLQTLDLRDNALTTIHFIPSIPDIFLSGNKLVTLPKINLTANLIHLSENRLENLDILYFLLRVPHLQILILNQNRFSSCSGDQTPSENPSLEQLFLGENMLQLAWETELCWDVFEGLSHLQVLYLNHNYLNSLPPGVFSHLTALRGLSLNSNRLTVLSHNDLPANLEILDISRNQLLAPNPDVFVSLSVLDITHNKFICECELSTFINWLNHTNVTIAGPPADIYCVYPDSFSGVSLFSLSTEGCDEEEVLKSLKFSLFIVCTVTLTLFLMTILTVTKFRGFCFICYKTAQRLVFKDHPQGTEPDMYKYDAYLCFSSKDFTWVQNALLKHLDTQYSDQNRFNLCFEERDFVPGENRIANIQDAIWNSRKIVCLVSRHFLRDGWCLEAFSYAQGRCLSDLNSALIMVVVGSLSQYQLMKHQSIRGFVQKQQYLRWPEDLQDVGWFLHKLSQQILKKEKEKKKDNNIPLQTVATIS

B1: STF2.EIII+ fusion protein (other)
chain: MAQVINTNSLSLLTQNNLNKSQSALGTAIERLSSGLRINSAKDDAAGQAIANRFTANIKGLTQASRNANDGISIAQTTEGALNEINNNLQRVRELAVQSANSTNSQSDLDSIQAEITQRLNEIDRVSGQTQFNGVKVLAQDNTLTIQVGANDGETIDIDLKQINSQTLGLDSLNVQKAYDVKDTAVTTKAYANNGTTLDVSGLDDAAIKAATGGTNGTASVTGGAVKFDADNNKYFVTIGGFTGADAAKNGDYEVNVATDGTVTLAAGATKTTMPAGATTKTEVQELKDTPAVVSADAKNALIAGGVDATDANGAELVKMSYTDKNGKTIEGGYALKAGDKYYAADYDEATGAIKAKTTSYTAADGTTKTAANQLGGVDGKTEVVTIDGKTYNASKAAGHDFKAQPELAEAAAKTTENPLQKIDAALAQVDALRSDLGAVQNRFNSAITNLGNTVNNLSEARSRIEDSDYATEVSNMSRAQILQQAGTSVLAQANQVPQNVLSLLRKGNSKLEGQLEFPRTSMEKLQLKGTTYGVCSKAFKFLGTPADTGHGTVVLELQYTGTDGPCKVPISSVASLNDLTPVGRLVTVNPFVSVATANAKVLIELEPPFGDSYIVVGRGEQQINHHWHKSGSSIGK
For B1, the “TLR-5 EC50 (IL-8 in supernatant of HEK293 cells, ELISA), batch 052” value was greater than 5 µg/mL, the “TLR-5 EC50 (IL-8 in supernatant of HEK293 cells, ELISA), batch 054” value was 1.2 µg/mL and the “TLR-5 EC50 (IL-8 in supernatant of HEK293 cells, ELISA), batch 057” value was 0.198 µg/mL.
